From the RNAGym collection of RNA variant scans (doi:10.7554/elife.90254)

B1: OR4K15 (parent)
chain: GUUAACGGUCAUAGGCCAUGGAAACUAGGAGCACCAUUUCGCUGCCAGUGAAGAAAUGAACAAAGAAAAUCUGGGCCAGGCAGGCAUCAAAAGAAAUAGUCUUGCGCUCAACCAGAAAGUCUGUAAUCAUUUUAAGGGUA

Variants of: B1
Assay: self-cleavage, relative activity (ratio to wild type); higher = more cleavage; in vitro, sequencing; the parent is a self-cleaving ribozyme

Variant	self-cleavage
GUUAACGGUCAUAGGCCAUGGAAACUAGGAGCACCAUUUCGCUGCCAGUGAAGAAAUGAACAAAGAAAAUCUGGGCCAGGCAGGCAUCAAAAGAAAUAGUCUUGCGCUCAACCAGAAAGUCUGUAAUCAUAUUAAGUGUA	0.48
GUUAACGGUCAUAGGCCAUGGAAACUAGGAGCACCAUUUCGCUGCCAGUGAAGAAAUGAACAAAGAAAAUCUGGGCCAGGCAGGCAUCAAAAGAAAUAGUCUUGCGCUCAACCAGAAAGUCUGUAAUCACUUUAAGGGUG	1
GUUAACGGUCAUAGGCCAUGGAAACUAGGAGCACCAUUUCGCUGCCAGUGAAGAAAUGAACAAAGAAAAUCUGGGCCAGGCAGGCAUCAAAAGAAAUAGUCUUGCGCUCAACCAGAAAGUCUGUAAUCAUCUUAAGAGUA	0.07
GUUAACGGUCAUAGGCCAUGGAAACUAGGAGCACCAUUUCGCUGCCAGUGAAGAAAUGAACAAAGAAAAUCUGGGCCAGGCAGGCAUCAAAAGAAAUAGUCUUGCGCUCAACCAGAAAGUCUGUAAUCAUCUUAAGUGUA	1.54
GUUAACGGUCAUAGGCCAUGGAAACUAGGAGCACCAUUUCGCUGCCAGUGAAGAAAUGAACAAAGAAAAUCUGGGCCAGGCAGGCAUCAAAAGAAAUAGUCUUGCGCUCAACCAGAAAGUCUGUAAUCAUCUUAUGGGUA	0.87
GUUAACGGUCAUAGGCCAUGGAAACUAGGAGCACCAUUUCGCUGCCAGUGAAGAAAUGAACAAAGAAAAUCUGGGCCAGGCAGGCAUCAAAAGAAAUAGUCUUGCGCUCAACCAGAAAGUCUGUAAUCAUCUUACGGGUA	1.02
GUUAACGGUCAUAGGCCAUGGAAACUAGGAGCACCAUUUCGCUGCCAGUGAAGAAAUGAACAAAGAAAAUCUGGGCCAGGCAGGCAUCAAAAGAAAUAGUCUUGCGCUCAACCAGAAAGUCUGUAAUCAUCUUAGGGGUA	1.55
GUUAACGGUCAUAGGCCAUGGAAACUAGGAGCACCAUUUCGCUGCCAGUGAAGAAAUGAACAAAGAAAAUCUGGGCCAGGCAGGCAUCAAAAGAAAUAGUCUUGCGCUCAACCAGAAAGUCUGUAAUCAUCUUGAGGGUA	0.73
GUUAACGGUCAUAGGCCAUGGAAACUAGGAGCACCAUUUCGCUGCCAGUGAAGAAAUGAACAAAGAAAAUCUGGGCCAGGCAGGCAUCAAAAGAAAUAGUCUUGCGCUCAACCAGAAAGUCUGUAAUCAGUUUAGGGGUA	1.08
GUUAACGGUCAUAGGCCAUGGAAACUAGGAGCACCAUUUCGCUGCCAGUGAAGAAAUGAACAAAGAAAAUCUGGGCCAGGCAGGCAUCAAAAGAAAUAGUCUUGCGCUCAACCAGAAAGUCUGUAAUCACUUCAAGGGUA	1.54
GUUAACGGUCAUAGGCCAUGGAAACUAGGAGCACCAUUUCGCUGCCAGUGAAGAAAUGAACAAAGAAAAUCUGGGCCAGGCAGGCAUCAAAAGAAAUAGUCUUGCGCUCAACCAGAAAGUCUGUAAUCAAUUUAAGGGCA	0.78
GUUAACGGUCAUAGGCCAUGGAAACUAGGAGCACCAUUUCGCUGCCAGUGAAGAAAUGAACAAAGAAAAUCUGGGCCAGGCAGGCAUCAAAAGAAAUAGUCUUGCGCUCAACCAGAAAGUCUGUAAUCACUUUGAGGGUA	0.27
GUUAACGGUCAUAGGCCAUGGAAACUAGGAGCACCAUUUCGCUGCCAGUGAAGAAAUGAACAAAGAAAAUCUGGGCCAGGCAGGCAUCAAAAGAAAUAGUCUUGCGCUCAACCAGAAAGUCUGUAAUCAUUCUGAGGGUA	1.05
GUUAACGGUCAUAGGCCAUGGAAACUAGGAGCACCAUUUCGCUGCCAGUGAAGAAAUGAACAAAGAAAAUCUGGGCCAGGCAGGCAUCAAAAGAAAUAGUCUUGCGCUCAACCAGAAAGUCUGUAAUCACUUUAUGGGUA	0.65
GUUAACGGUCAUAGGCCAUGGAAACUAGGAGCACCAUUUCGCUGCCAGUGAAGAAAUGAACAAAGAAAAUCUGGGCCAGGCAGGCAUCAAAAGAAAUAGUCUUGCGCUCAACCAGAAAGUCUGUAAUCAUCUUAAGGGUG	0.47
GUUAACGGUCAUAGGCCAUGGAAACUAGGAGCACCAUUUCGCUGCCAGUGAAGAAAUGAACAAAGAAAAUCUGGGCCAGGCAGGCAUCAAAAGAAAUAGUCUUGCGCUCAACCAGAAAGUCUGUAAUCAUCUUAAGGGUU	1.59
GUUAACGGUCAUAGGCCAUGGAAACUAGGAGCACCAUUUCGCUGCCAGUGAAGAAAUGAACAAAGAAAAUCUGGGCCAGGCAGGCAUCAAAAGAAAUAGUCUUGCGCUCAACCAGAAAGUCUGUAAUCAUCCUAAGGGUA	1.1
GUUAACGGUCAUAGGCCAUGGAAACUAGGAGCACCAUUUCGCUGCCAGUGAAGAAAUGAACAAAGAAAAUCUGGGCCAGGCAGGCAUCAAAAGAAAUAGUCUUGCGCUCAACCAGAAAGUCUGUAAUCAUCAUAAGGGUA	0.94
GUUAACGGUCAUAGGCCAUGGAAACUAGGAGCACCAUUUCGCUGCCAGUGAAGAAAUGAACAAAGAAAAUCUGGGCCAGGCAGGCAUCAAAAGAAAUAGUCUUGCGCUCAACCAGAAAGUCUGUAAUCACAUUAAGGGUA	0.25
GUUAACGGUCAUAGGCCAUGGAAACUAGGAGCACCAUUUCGCUGCCAGUGAAGAAAUGAACAAAGAAAAUCUGGGCCAGGCAGGCAUCAAAAGAAAUAGUCUUGCGCUCAACCAGAAAGUCUGUAAUCACCUUAAGGGUA	1.01
GUUAACGGUCAUAGGCCAUGGAAACUAGGAGCACCAUUUCGCUGCCAGUGAAGAAAUGAACAAAGAAAAUCUGGGCCAGGCAGGCAUCAAAAGAAAUAGUCUUGCGCUCAACCAGAAAGUCUGUAAUCACUUUAAUGGUA	1.19
